Article PMC8800102
Read-outs that look alike come from different tables or passages of the source.

What was measured:
Assay in all cases: NMR titration
[1] = molecular target: T1, Sds3 capped Tudor domain (CTD) (mouse, UniProt Q8BR65 250-326)
T1 sequence: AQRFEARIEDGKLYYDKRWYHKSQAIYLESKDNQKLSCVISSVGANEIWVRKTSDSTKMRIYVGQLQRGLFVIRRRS

[2] = molecular target: T1, Sds3 capped Tudor domain (CTD); remark: listed apart in the source
[3] = molecular target: T1, Sds3 capped Tudor domain (CTD); remark: listed apart in the source

B1: random RNA 8mer (ssRNA)
RNA: AACUGUCG
- binding result [1]: no binding

B2: T2G4 (structured_DNA)
DNA: TTGGGG
- binding result [2]: binds

B3: SELEX 7mer motif (ssDNA)
DNA: TGTGGTT
- binding result [3]: no binding
